Results reported in PMC7357845.

Biological target: rabbit skeletal muscle G-actin (rabbit) (UniProt P68135)
Assay: SPR

Substance	Kd [nM]
His-tagged ZASP-S WT (N21 His-tag) (from UniProt O75112-6 1-283) (natural protein)	2
untagged ZASP-S WT (from UniProt O75112-6 1-283) (natural protein)	62
